3 molecules from publication PMC7949154, “Heat shock transcription factor 1 is SUMOylated in the activated trimeric state” (The Journal of Biological Chemistry, 2020) can be followed below.

Residue numbers refer to the chain shown, from its start. In names and notes the source's numbering stands.

Series [1] concerns the target T1, Heat shock transcription factor 1 (Hsf1), wildtype (human), Q00613.
T1 chain: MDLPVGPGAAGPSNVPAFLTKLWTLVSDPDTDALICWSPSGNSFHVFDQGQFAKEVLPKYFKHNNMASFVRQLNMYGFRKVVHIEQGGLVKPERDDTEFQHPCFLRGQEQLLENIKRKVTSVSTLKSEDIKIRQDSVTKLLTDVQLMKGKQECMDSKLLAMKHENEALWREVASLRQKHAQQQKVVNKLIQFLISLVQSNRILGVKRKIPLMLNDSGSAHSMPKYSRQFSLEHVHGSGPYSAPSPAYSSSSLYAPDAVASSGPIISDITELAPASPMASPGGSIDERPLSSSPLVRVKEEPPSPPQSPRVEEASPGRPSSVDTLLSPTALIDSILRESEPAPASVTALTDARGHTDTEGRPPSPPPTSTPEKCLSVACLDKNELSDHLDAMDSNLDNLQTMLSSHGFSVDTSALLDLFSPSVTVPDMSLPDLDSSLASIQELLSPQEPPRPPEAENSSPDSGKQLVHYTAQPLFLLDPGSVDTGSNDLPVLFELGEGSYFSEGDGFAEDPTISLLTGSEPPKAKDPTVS
Description: native gel or EMSA; Blue native PAGE (8% gel, on ice) of monomeric Hsf1 and of Hsf1 monomers heat shocked at 42 °C for 10 min; samples taken at 0 and 3 h of incubation at 25 °C (Figure S1). The following applies: remark: other sources report otherwise. (In general: A gel shift assay detects complexes by their altered migration in electrophoresis.)

Series [2] concerns the molecule itself. Described as above.

B1: Heat shock transcription factor 1 (Hsf1), wildtype, Q00613 1-529 (natural protein)
chain: T1 chain
Take B1: the stoichiometry N (in general, a count of units in the complex or per binding partner) in series [1] is 3.

B2: Hsf1–K298R,S303E,S307E (natural protein, human, UniProt Q00613 1-529, looked up)
chain: T1 chain with K298R, S303E, S307E
notes: Heat shock transcription factor 1 (Hsf1), human, full length, K298R in the S303E,S307E variant; also called REE; EE,K298R; source: E. coli BL21(DE3) Rosetta, purified (Ni-IDA, tag cleaved with tobacco etch virus protease, SEC)
As for B2, the “stoichiometry N” value in series [2] turned out to be 3.

B3: Hsf1–S303E,S307E (double phosphomimetic variant) (natural protein, human, UniProt Q00613 1-529, looked up)
chain: T1 chain with S303E, S307E
notes: Heat shock transcription factor 1 (Hsf1), human, full length, phosphomimetic S303E,S307E; theoretical mass 57,270.43 Da; also called EE; source: E. coli BL21(DE3) Rosetta, purified (Ni-IDA, tag cleaved with tobacco etch virus protease, SEC; monomeric and trimeric fractions)
On to B3, for which the “stoichiometry N” value in series [2] came to 3.
